In patent US20260152567A1 (CSPC MEGALITH BIOPHARMACEUTICAL, published 2026):

Columns and labels:
[1] = molecular target: T1, recombinant human CD73 protein (human, UniProt P21589 27-547); experiment: ELISA, plate coated with recombinant human CD73 at 1 µg/mL
T1 construct: Bought soluble protein; The background says that CD73 forms a homodimer; also called soluble CD73; free CD73 protein
T1 sequence (looked up): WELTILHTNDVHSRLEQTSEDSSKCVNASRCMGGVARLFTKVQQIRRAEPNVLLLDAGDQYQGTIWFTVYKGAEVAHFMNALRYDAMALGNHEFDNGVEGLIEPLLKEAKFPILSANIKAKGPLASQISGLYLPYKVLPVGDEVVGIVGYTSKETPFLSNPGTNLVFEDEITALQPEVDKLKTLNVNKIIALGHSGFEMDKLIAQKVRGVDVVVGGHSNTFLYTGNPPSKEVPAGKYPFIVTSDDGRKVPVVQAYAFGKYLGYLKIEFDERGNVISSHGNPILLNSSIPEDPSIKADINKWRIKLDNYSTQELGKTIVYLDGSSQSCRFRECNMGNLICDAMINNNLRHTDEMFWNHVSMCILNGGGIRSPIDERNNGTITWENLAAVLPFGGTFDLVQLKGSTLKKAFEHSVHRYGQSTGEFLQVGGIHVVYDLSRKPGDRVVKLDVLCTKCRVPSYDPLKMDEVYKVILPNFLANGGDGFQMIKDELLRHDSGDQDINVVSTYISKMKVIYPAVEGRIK
Procedure: The obtained eukaryotic expression vectors were transiently transferred into HEK293 cells, and the cells were then cultured for 6 days. The culture supernatants were harvested and purified by a ProteinA column to obtain the target antibodies, which were named 7C3C2-hIgG1 and 1F2F9-hIgG1, respectively. The affinity of the antibodies for the recombinant human CD73 protein (as described in Example 1) was determined using ELISA method. A elisa plate was coated with the recombinant human CD73 protein at a concentration of 1 μg/mL and washed 3 times with a PBST buffer. Then, the plate was blocked with a PBS buffer containing 2% BSA at 37° C. for 2 h and washed 3 times with a PBST buffer. 5-fold gradient dilutions (0-133.3 nM) of the test antibodies were added, and the mixture was incubated at 37° C. for 2 h. The plate was further washed 3 times with a PBST buffer. A horseradish peroxidase-labeled secondary antibody was added, and the mixture was incubated at 37° C. for 1 h. The plate was then washed 3 times with a PBST buffer. Chromogenic reaction was performed, and the absorbance values were read after the reaction was terminated.

[2] = molecular target: T2, human CD73 on the cell surface (MDA-MB-231 and SKOV3 tumor cells) (human, UniProt P21589 27-549); experiment: flow cytometry on SK-OV-3 cells
T2 construct: whole, on cells; also called cell surface CD73; CD73 on the surface of human tumor cells
T2 sequence (looked up): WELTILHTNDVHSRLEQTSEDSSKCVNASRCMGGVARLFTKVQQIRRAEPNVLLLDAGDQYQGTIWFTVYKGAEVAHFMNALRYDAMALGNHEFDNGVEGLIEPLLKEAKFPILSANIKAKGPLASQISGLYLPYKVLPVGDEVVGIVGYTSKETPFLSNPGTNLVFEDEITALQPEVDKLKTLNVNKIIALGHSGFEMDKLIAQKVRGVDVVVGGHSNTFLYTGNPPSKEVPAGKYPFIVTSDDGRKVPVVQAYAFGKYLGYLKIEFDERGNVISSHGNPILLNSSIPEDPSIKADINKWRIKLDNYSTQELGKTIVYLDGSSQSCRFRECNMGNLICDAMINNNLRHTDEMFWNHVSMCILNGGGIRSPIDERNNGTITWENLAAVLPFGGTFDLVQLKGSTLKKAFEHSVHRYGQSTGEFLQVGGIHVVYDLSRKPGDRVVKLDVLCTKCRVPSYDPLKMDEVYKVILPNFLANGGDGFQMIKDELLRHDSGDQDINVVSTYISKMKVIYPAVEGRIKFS
Procedure: (§1) In this example, the exemplary antibodies of the present application were compared with anti-CD73 antibodies described in other patent applications. Antibodies MEDI9447 and Hu101-28 (with CDR sequences from PCT patent applications WO 2016/075099 and WO 2018/137598, respectively) were cloned into eukaryotic expression vectors containing the hIgG1-kappa constant region. The binding ability of the humanized antibodies Hab7C3C2.5 and Hab1F2F9.15 to cell surface CD73 was assessed using tumor cell lines MDA-MB-231 and SKOV3 which endogenously express human CD73 on the cell surface. The cells were seeded in a 96-well plate at a density of 2×10⁶ cells/mL, with 100 μL per well. 4-fold gradient dilutions (0-100 nM) of the antibodies were added, and the mixture was incubated at 4° C. for 1 h. A goat anti-human secondary antibody was added, and the mixture was incubated at 4° C. in the dark for 50 min for labeling. The fluorescence intensity of the cells was then measured by a flow cytometer.

[3] = molecular target: T2, human CD73 on the cell surface …; experiment: flow cytometry on MDA-MB-231 cells
Procedure: as §1

[4] = molecular target: T1, recombinant human CD73 protein; experiment: BLI (Fortebio), human CD73 on HIS1K biosensors, antibody as analyte
Procedure: The humanized antibody VH and VL were separately constructed into eukaryotic expression vectors containing the hIgG1-kappa constant region with L234A, L235A, P329A and P331S mutations (abbreviated as hIgG1 in the present application). The affinity of all humanized antibodies was assayed in this example. Human CD73 protein was immobilized onto HIS1K biosensors to achieve a binding response threshold of 0.3 nm. After a 120-second baseline step, the sensors were separately immersed in anti-CD73 antibody analytes diluted in a gradient with a 0.02% PBST buffer (each antibody was diluted in a 2-fold gradient with an initial concentration of 25 nM, resulting in 7 concentration gradients). The times for the ligand-analyte binding and dissociation were 120 s and 300 s, respectively. The data of the antigen-antibody affinity were calculated by regression according to the binding curves using an analysis software.

[5] = molecular target: T3, cynomolgus monkey CD73 protein (cynomolgus monkey, UniProt A0A2K5V5U7 27-547); experiment: BLI (Fortebio), cynomolgus CD73 on HIS1K biosensors, antibody as analyte
T3 construct: construct not described
T3 sequence: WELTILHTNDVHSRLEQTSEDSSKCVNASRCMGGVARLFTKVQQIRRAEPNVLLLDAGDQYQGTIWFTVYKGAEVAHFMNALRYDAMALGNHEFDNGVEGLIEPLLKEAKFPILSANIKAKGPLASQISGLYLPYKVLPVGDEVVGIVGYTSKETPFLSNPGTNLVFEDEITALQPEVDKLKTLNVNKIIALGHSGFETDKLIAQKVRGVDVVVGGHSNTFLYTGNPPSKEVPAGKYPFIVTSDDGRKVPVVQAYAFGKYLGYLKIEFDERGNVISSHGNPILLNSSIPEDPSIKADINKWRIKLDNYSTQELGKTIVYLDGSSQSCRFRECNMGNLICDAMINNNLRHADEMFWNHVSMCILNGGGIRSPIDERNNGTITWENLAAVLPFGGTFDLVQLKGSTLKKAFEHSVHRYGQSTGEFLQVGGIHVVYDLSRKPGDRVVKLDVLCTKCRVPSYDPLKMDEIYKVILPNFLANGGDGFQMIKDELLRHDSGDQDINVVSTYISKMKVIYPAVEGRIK
Procedure: In this example, the cross-binding ability of the exemplary humanized anti-CD73 antibodies of the present application to cynomolgus monkey CD73 was assayed by a Fortebio experiment. The specific implementation steps included immobilizing the cynomolgus monkey CD73 protein onto HIS1K biosensors. […] The times for the ligand-analyte binding and dissociation were 120 s and 300 s, respectively. The data of the antigen-antibody affinity were calculated by regression according to the binding curves using an analysis software.

B1: 1F2F9-hIgG1 (antibody, V domains shown)
VH: QVQLQQPGTELVKPGASVKLSCKASGYTFTSYWMHWVKQRPGHGLEWIGNINPSNGGTKYNEKFKSKATLTVDKSSSTAYLQLSSLTSEDSAVYYCARRDYGSPSYWGQGTLVTVSA
VL: DIKMTQSPSSIYASLGERVTITCKASQDINSYLTWFQQKVGKSPKTLIYRTNILLDGVPSRFSGSGSGQDYSLTISSLDYEDMGIYHCLQYHEFPVTFGAGTKLELKR
notes: Human-mouse chimeric antibody, expressed in HEK293, Protein A purified; also called 1F2F9 chimeric antibody
EC50 [1]: 28 pM

B2: 7C3C2-hIgG1 (antibody, V domains shown)
VH: QVQLQQSGPELVKPGASVKLSCKASGYTFTSYDINWVKQRPGQGLEWIGWIYPRDGFTKYNEKFKGKATLTVDTSSSTAYMELHSLTSEDSAVYFCARKEGYRGDWYFDVWGTGTTVTVSS
VL: DIQMTQSPASLSASVGETVTITCRASGNVHNYLAWYQQKQGKSPQLLVYNAKTLADGVPSRFSGSGSGTQYSLKINSLQPEDFGSYYCQHFWSTPWTFGGGTELEIKR
notes: Human-mouse chimeric antibody, expressed in HEK293, Protein A purified; also called 7C3C2 chimeric antibody
EC50 [1]: 17 pM

B3: MEDI9447 (antibody, V domains shown)
VH: EVQLLESGGGLVQPGGSLRLSCAASGFTFSSYAYSWVRQAPGKGLEWVSAISGSGGRTYYADSVKGRFTISRDNSKNTLYLQMNSLRAEDTAVYYCARLGYGRVDEWGRGTLVTVSS
VL: QSVLTQPPSASGTPGQRVTISCSGSLSNIGRNPVNWYQQLPGTAPKLLIYLDNLRLSGVPDRFSGSKSGTSASLAISGLQSEDEADYYCATWDDSHPGWTFGGGTKLTVLG
EC50 [2]: 170 pM
EC50 [3]: 490 pM

B4: Hab1F2F9.12 (antibody, human IgG1, kappa, L234A L235A, V domains shown)
VH: QVQLVQSGAEVKKPGASVKVSCKASGYTFTSYWMHWVRQAPGQRLEWMGNINPSNGGTKYNEKFQGRVTITVDTSASTAYMELSSLRSEDTAVYYCARRDYGSPSYWGQGTTVTVSS
VL: DIQMTQSPSSLSASVGDRVTITCKASQDINSYLTWFQQKPGKAPKSLIYRTNILLDGVPSRFSGSGSGTDYTLTISSLQPEDFATYYCLQYHEFPVTFGGGTKLEIKR
notes: Humanized 1F2F9; also called Huab1F2F9.12
Kd [4]: 720 pM
koff [4]: 0.00133 s⁻¹
kon [4]: 1.85e+06 M⁻¹ s⁻¹
Kd [5]: 681 pM
koff [5]: 0.00152 s⁻¹
kon [5]: 2.22e+06 M⁻¹ s⁻¹

B5: Hab7C3C2.9 (antibody, human IgG1, kappa, L234A L235A, V domains shown)
VH: QVQLVQSGAEVKKPGASVKVSCKASGYTFTSYDINWVRQATGQGLEWMGWIYPRDGFTKYAQKFQGRVTITVNTSISTAYMELSSLRSEDTAVYYCARKEGYRGDWYFDVWGQGTTVTVSS
VL: DIQMTQSPSSLSASVGDRVTITCRASGNVHNYLAWYQQKPGKAPKLLLYNAKTLASGVPSRFSGSGSGTDYTLTISSLQPEDFATYYCQHFWSTPWTFGGGTELEIKR
notes: Humanized 7C3C2; also called Huab7C3C.9
Kd [4]: 1030 pM
koff [4]: 0.00381 s⁻¹
kon [4]: 3.7e+06 M⁻¹ s⁻¹
Kd [5]: 852 pM
koff [5]: 0.00388 s⁻¹
kon [5]: 4.56e+06 M⁻¹ s⁻¹
